For 13 molecules, Kd, binding result and stoichiometry N results are on record in paper PMC10095481, “Sequence-Dependent Interaction of the Human Papillomavirus E2 Protein with the DNA Elements on Its DNA Replication Origin”.

Data set [1] concerns the target T1, HPV-11 E2 (full length) (Human papillomavirus type 11, UniProt P04015 1-367). Nature of the data set: EMSA; EMSA: 10 mM HEPES pH 7.9, 50 mM NaCl, 4 mM MgCl2, 10% glycerol, 5 mM DTT, 0.2 mM EDTA, 0.1 mg/mL BSA, 10 ng/uL poly(dI-dC), 10 min 30 C. As to conditions: protein: recombinant; tags: N-terminal His (pET28a); chain copies: 2; label: 32P.
Data set [2] concerns the target T1, HPV-11 E2 (full length). The experiment in a line: competition; unlabeled competitor vs 32P-BS1; EMSA: 10 mM HEPES pH 7.9, 50 mM NaCl, 4 mM MgCl2, 10% glycerol, 5 mM DTT, 0.2 mM EDTA, 0.1 mg/mL BSA, 10 ng/uL poly(dI-dC), 10 min 30 C. The note with it: protein: recombinant; tags: N-terminal His (pET28a); chain copies: 2; label: 32P.
Data set [3] has as its target T1, HPV-11 E2 (full length). The experiment in a line: EMSA; apparent Kd; EMSA: 10 mM HEPES pH 7.9, 50 mM NaCl, 4 mM MgCl2, 10% glycerol, 5 mM DTT, 0.2 mM EDTA, 0.1 mg/mL BSA, 10 ng/uL poly(dI-dC), 10 min 30 C. The note with it: protein: recombinant; tags: N-terminal His (pET28a); chain copies: 2; label: 32P.
In data set [4] the target is T1, HPV-11 E2 (full length). Nature of the data set: EMSA; 35 C; EMSA: 10 mM HEPES pH 7.9, 50 mM NaCl, 4 mM MgCl2, 10% glycerol, 5 mM DTT, 0.2 mM EDTA, 0.1 mg/mL BSA, 10 ng/uL poly(dI-dC), 10 min 30 C. As to conditions: protein: recombinant; tags: N-terminal His (pET28a); chain copies: 2; label: 32P.
The target in data set [5] is T1, HPV-11 E2 (full length). The experiment in a line: EMSA; 30 C; EMSA: 10 mM HEPES pH 7.9, 50 mM NaCl, 4 mM MgCl2, 10% glycerol, 5 mM DTT, 0.2 mM EDTA, 0.1 mg/mL BSA, 10 ng/uL poly(dI-dC), 10 min 30 C. As to conditions: protein: recombinant; tags: N-terminal His (pET28a); chain copies: 2; label: 32P.
The target of data set [6] is T1, HPV-11 E2 (full length). The experiment in a line: EMSA; 0 C; EMSA: 10 mM HEPES pH 7.9, 50 mM NaCl, 4 mM MgCl2, 10% glycerol, 5 mM DTT, 0.2 mM EDTA, 0.1 mg/mL BSA, 10 ng/uL poly(dI-dC), 10 min 30 C. The note with it: protein: recombinant; tags: N-terminal His (pET28a); chain copies: 2; label: 32P.
The target of data set [7] is T1, HPV-11 E2 (full length). Nature of the data set: EMSA; 10 C; EMSA: 10 mM HEPES pH 7.9, 50 mM NaCl, 4 mM MgCl2, 10% glycerol, 5 mM DTT, 0.2 mM EDTA, 0.1 mg/mL BSA, 10 ng/uL poly(dI-dC), 10 min 30 C. As to conditions: protein: recombinant; tags: N-terminal His (pET28a); chain copies: 2; label: 32P.
Data set [8] addresses T1, HPV-11 E2 (full length). The experiment in a line: EMSA; 20 C; EMSA: 10 mM HEPES pH 7.9, 50 mM NaCl, 4 mM MgCl2, 10% glycerol, 5 mM DTT, 0.2 mM EDTA, 0.1 mg/mL BSA, 10 ng/uL poly(dI-dC), 10 min 30 C. The note with it: protein: recombinant; tags: N-terminal His (pET28a); chain copies: 2; label: 32P.
In data set [9] the target is T1, HPV-11 E2 (full length). The experiment in a line: EMSA; flank experiment WT; EMSA: 10 mM HEPES pH 7.9, 50 mM NaCl, 4 mM MgCl2, 10% glycerol, 5 mM DTT, 0.2 mM EDTA, 0.1 mg/mL BSA, 10 ng/uL poly(dI-dC), 10 min 30 C. As to conditions: protein: recombinant; tags: N-terminal His (pET28a); chain copies: 2; label: 32P.
The target of data set [10] is T1, HPV-11 E2 (full length). Nature of the data set: EMSA; affinity similar to BS1+2; C1, C2 and C3; EMSA: 10 mM HEPES pH 7.9, 50 mM NaCl, 4 mM MgCl2, 10% glycerol, 5 mM DTT, 0.2 mM EDTA, 0.1 mg/mL BSA, 10 ng/uL poly(dI-dC), 10 min 30 C. The note with it: protein: recombinant; tags: N-terminal His (pET28a); chain copies: 2; label: 32P.
Data set [11] concerns the target T2, recombinant full-length HPV type 11 E2 protein (human papillomavirus type 11), P04015.
T2 chain: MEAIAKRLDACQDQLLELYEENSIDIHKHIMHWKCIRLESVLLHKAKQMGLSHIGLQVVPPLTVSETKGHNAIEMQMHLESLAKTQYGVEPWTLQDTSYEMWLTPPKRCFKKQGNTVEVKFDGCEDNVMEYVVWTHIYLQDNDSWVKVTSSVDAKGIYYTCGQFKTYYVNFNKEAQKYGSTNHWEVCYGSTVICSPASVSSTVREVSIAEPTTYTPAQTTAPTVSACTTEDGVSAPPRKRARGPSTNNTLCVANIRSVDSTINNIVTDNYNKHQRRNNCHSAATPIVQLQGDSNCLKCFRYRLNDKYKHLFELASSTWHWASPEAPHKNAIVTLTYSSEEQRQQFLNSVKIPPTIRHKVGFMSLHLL
The experiment in a line: dynamic light scattering; purified E2 in solution at low (≤0.1 mg/mL) protein concentration; solvent set as 10% glycerol; three separate measurements; monomer to dimer. The note with it: remark: other sources report otherwise.

In data set [12] the target is T1, HPV-11 E2 (full length). The experiment in a line: EMSA; spacer experiment WT (TTTT); EMSA: 10 mM HEPES pH 7.9, 50 mM NaCl, 4 mM MgCl2, 10% glycerol, 5 mM DTT, 0.2 mM EDTA, 0.1 mg/mL BSA, 10 ng/uL poly(dI-dC), 10 min 30 C. The note with it: protein: recombinant; tags: N-terminal His (pET28a); chain copies: 2; label: 32P.
In data set [13] the target is T1, HPV-11 E2 (full length). Nature of the data set: EMSA; single complex C1; EMSA: 10 mM HEPES pH 7.9, 50 mM NaCl, 4 mM MgCl2, 10% glycerol, 5 mM DTT, 0.2 mM EDTA, 0.1 mg/mL BSA, 10 ng/uL poly(dI-dC), 10 min 30 C. The note with it: protein: recombinant; tags: N-terminal His (pET28a); chain copies: 2; label: 32P.
The target of data set [14] is T1, HPV-11 E2 (full length). Nature of the data set: EMSA; C1, C2 and C3 complexes; EMSA: 10 mM HEPES pH 7.9, 50 mM NaCl, 4 mM MgCl2, 10% glycerol, 5 mM DTT, 0.2 mM EDTA, 0.1 mg/mL BSA, 10 ng/uL poly(dI-dC), 10 min 30 C. As to conditions: protein: recombinant; tags: N-terminal His (pET28a); chain copies: 2; label: 32P.
Data set [15] addresses T1, HPV-11 E2 (full length). The experiment in a line: EMSA; no complex at 80 nM E2; EMSA: 10 mM HEPES pH 7.9, 50 mM NaCl, 4 mM MgCl2, 10% glycerol, 5 mM DTT, 0.2 mM EDTA, 0.1 mg/mL BSA, 10 ng/uL poly(dI-dC), 10 min 30 C. The note with it: protein: recombinant; tags: N-terminal His (pET28a); chain copies: 2; label: 32P.

B1: BS1 5'+3' mutant (dsDNA)
DNA 1: CCTGCAACCGAAAACGGTTACCCA
DNA 2: TGGGTAACCGTTTTCGGTTGCAGG
B1: in data set [1], the Kd is 7.7 ± 1.7 nM.

B2: BS2 (dsDNA)
DNA 1: GGAGGGACCGAAAACGGTTCAACC
DNA 2: GGTTGAACCGTTTTCGGTCCCTCC
For the molecule B2, the Kd is 6 ± 0.6 nM in data set [2] and 7.8 ± 0.7 nM in data set [3].

B3: BS3 (dsDNA)
DNA 1: CCTGCAACCGGTTTCGGTTACCCA
DNA 2: TGGGTAACCGAAACCGGTTGCAGG
For B3, the Kd in data set [3] stood at 10.2 ± 1.7 nM.

B4: BS1 3' mutant (dsDNA)
DNA 1: GGTTCAACCGAAAACGGTTACCCA
DNA 2: TGGGTAACCGTTTTCGGTTGAACC
Regarding B4, the Kd in [1] turned out to be 7.6 ± 0.6 nM.

B5: BS1 (dsDNA)
DNA 1: GGTTCAACCGAAAACGGTTATATG
DNA 2: CATATAACCGTTTTCGGTTGAACC
For B5, the Kd amounted to 5.7 ± 1.1 nM in [4]; 6.2 ± 1.4 nM in [2]; 5.3 ± 0.4 nM in [5]; 7.3 ± 0.7 nM in [6]; 5.5 ± 1.5 nM in data set [7]; 6.2 ± 1.4 nM in data set [8]. The Kd worked out at 6 ± 0.7 nM in data set [9] and 6.2 ± 0.9 nM in [3].

B6: BS1+2+E1BS (124 bp) (dsDNA)
DNA 1: GTAACCCACACCCTACATATTTCCTTCTTATACTTAATAACAATCTTATTTAAAAAAGAGGAGGGACCGAAAACGGTTCAACCGAAAACGGTTATATATAAACCAGCCCAAAAAATTAGCAGA
DNA 2: TCTGCTAATTTTTTGGGCTGGTTTATATATAACCGTTTTCGGTTGAACCGTTTTCGGTCCCTCCTCTTTTTTAAATAAGATTGTTATTAAGTATAAGAAGGAAATATGTAGGGTGTGGGTTAC
Consider B6, for which, in data set [10], the binding result is “binds”.

B7: recombinant full-length HPV type 11 E2 protein, P04015 1-367 (natural protein)
chain: MEAIAKRLDACQDQLLELYEENSIDIHKHIMHWKCIRLESVLLHKAKQMGLSHIGLQVVPPLTVSETKGHNAIEMQMHLESLAKTQYGVEPWTLQDTSYEMWLTPPKRCFKKQGNTVEVKFDGCEDNVMEYVVWTHIYLQDNDSWVKVTSSVDAKGIYYTCGQFKTYYVNFNKEAQKYGSTNHWEVCYGSTVICSPASVSSTVREVSIAEPTTYTPAQTTAPTVSACTTEDGVSAPPRKRARGPSTNNTLCVANIRSVDSTINNIVTDNYNKHQRRNNCHSAATPIVQLQGDSNCLKCFRYRLNDKYKHLFELASSTWHWASPEAPHKNAIVTLTYSSEEQRQQFLNSVKIPPTIRHKVGFMSLHLL
In the case of B7, the stoichiometry N in [11] is 2.

B8: BS4 (dsDNA)
DNA 1: CTTGCAACCGTTTTCGGTTGCCCT
DNA 2: AGGGCAACCGAAAACGGTTGCAAG
For B8, the results for the Kd in [2], in [12] and in data set [3] were 4.6 ± 0.4 nM, 4.4 ± 0.4 nM and 4.8 ± 0.7 nM, respectively.

B9: BS1 5' mutant (dsDNA)
DNA 1: CCTGCAACCGAAAACGGTTATATG
DNA 2: CATATAACCGTTTTCGGTTGCAGG
Regarding B9, the Kd in data set [1] came to 6.4 ± 0.6 nM.

B10: BS4 with GTTT spacer (dsDNA)
DNA 1: CTTGCAACCGGTTTCGGTTGCCCT
DNA 2: AGGGCAACCGAAACCGGTTGCAAG
With B10, in [1], the Kd was determined as 6.4 ± 0.6 nM.

B11: BS1 (50 bp) (dsDNA)
DNA 1: GGAGGGATTGAAAACTTTTCAACCGAAAACGGTTATATATAAACCAGCCC
DNA 2: GGGCTGGTTTATATATAACCGTTTTCGGTTGAAAAGTTTTCAATCCCTCC
For the molecule B11, the Kd in [13] turned out to be 5.3 ± 0.6 nM.

B12: BS1+2 (50 bp) (dsDNA)
DNA 1: GGCGGGACCGAAAACGGTTCAACCGAAAACGGTTATATATAAACCAGCCC
DNA 2: GGGCTGGTTTATATATAACCGTTTTCGGTTGAACCGTTTTCGGTCCCGCC
Take B12: the Kd in [14] came to 4.2 ± 0.3 nM.

B13: Non-specific (dsDNA)
DNA 1: TGGCGGACCCCACCCAGCCCCACGCGCA
DNA 2: TGCGCGTGGGGCTGGGTGGGGTCCGCCA
B13: the binding result in [15] is reported as “no binding”.
